Columns and labels:
[1] = substrate: N[C@@H](CS)C(=O)O; experiment: Michaelis–Menten kinetics, Ala-NDA assay; format: biochemical, Bacillus subtilis; conditions: pyridoxal-5′-phosphate (PLP)
purified protein = substrate: N[C@@H](CS)C(=O)O; experiment: purified protein; format: biochemical, Staphylococcus aureus; conditions: pyridoxal-5′-phosphate (PLP) Cys displaces Lys250 and binds PLP to form Cys-aldimine; catalytic Cys389

Protein	Km [1] [µM]	kcat [1] [s⁻¹]	kcat/Km [1] [M⁻¹ s⁻¹]	Km (purified protein) [µM]	kcat (purified protein) [s⁻¹]	kcat/Km (purified protein) [M⁻¹ s⁻¹]
cysteine desulfurase SufS (BsSufS) (Bacillus subtilis subsp. subtilis str. 168) (protein) MNITDIREQFPILHQQVNGHDLVYLDSAATSQKPRAVIETLDKYYNQYNSNVHRGVHTLGTRATDGYEGAREKVRKFINAKSMAEIIFTKGTTTSLNMVALSYARANLKPGDEVVITYMEHHANIIPWQQAVKATGATLKYIPLQEDGTISLEDVRETVTSNTKIVAVSHVSNVLGTVNPIKEMAKIAHDNGAVIVVDGAQSTPHMKIDVQDLDCDFFALSSHKMCGPTGVGVLYGKKALLENMEPAEFGGEMIDFVGLYESTWKELPWKFEAGTPIIAGAIGLGAAIDFLEEIGLDEISRHEHKLAAYALERFRQLDGVTVYGPEERAGLVTFNLDDVHPHDVATVLDAEGIAVRAGHHCAQPLMKWLDVTATARASFYLYNTEEEIDKLVEALQKTKEYFTNVF	440 ± 190	0.0817 ± 0.0117	185 ± 107			
cysteine desulfurase SufS (SaSufS) (Staphylococcus aureus subsp. aureus USA300) (protein) MAEHSFDVNEVIKDFPILDQKVNGKRLAYLDSTATSQTPVQVLNVLEDYYKRYNSNVHRGVHTLGSLATDGYENARETVRRFINAKYFEEIIFTRGTTASINLVAHSYGDANVEEGDEIVVTEMEHHANIVPWQQLAKRKNATLKFIPMTADGELNIEDIKQTINDKTKIVAIAHISNVLGTINDVKTIAEIAHQHGAIISVDGAQAAPHMKLDMQEMNADFYSFSGHKMLGPTGIGVLFGKRELLQKMEPIEFGGDMIDFVSKYDATWADLPTKFEAGTPLIAQAIGLAEAIRYLERIGFDAIHKYEQELTIYAYEQMSAIEGIEIYGPPKDRRAGVITFNLQDVHPHDVATAVDTEGVAVRAGHHCAQPLMKWLNVSSTARASFYIYNTKEDVDQLINALKQTKEFFSYEF				600 ± 170	0.0683 ± 0.00833	113 ± 45

From paper PMC11851464, “Development of a Spectrophotometric Assay for the Cysteine Desulfurase from Staphylococcus aureus” (Antibiotics, 2025)
